This passage reports Kd results from article PMC8597880.

pKd: −log10 of the molar value.

Test in all cases: BLI
For orientation: Biolayer interferometry detects binding as a change in optical thickness at a sensor tip.

The target in assay [1] is recombinant SARS-CoV-2 RBD B.1.617.2/L452R, T478K (SARS-CoV-2, B.1.617.2 (Delta), RBD L452R, T478K).
The target of assay [2] is recombinant SARS-CoV-2 RBD B.1.1.7/N501Y (SARS-CoV-2, Alpha (B.1.1.7) RBD with N501Y).
Assay [3] deals with recombinant SARS-CoV-2 RBD B.1.351/K417N, E484K, N501Y (SARS-CoV-2, B.1.351 (Beta), RBD K417N, E484K, N501Y).
Assay [4] deals with recombinant SARS-CoV-2 RBD P.1/K417T, E484K, N501Y (SARS-CoV-2, P.1 (Gamma), RBD K417T, E484K, N501Y).

Broadly, the pKd is the Kd on a negative log10 scale, so that one unit is a factor of ten. For the substance NIH-CoVnb-112 (VHH), the pKd in assay [1] was 8.78; in assay [2], 8.52; in assay [3] it was 8.37; in assay [4], 8.38.
